One may read the EC50 as the concentration at which the effect is half-maximal. A high value points to a need for much substance. As a reminder, the Kd is the equilibrium constant for the complex coming apart. Read a low Kd as a tighter complex.

Test [1] has as its target T1, CD24 (cell surface) (human).
T1 chain: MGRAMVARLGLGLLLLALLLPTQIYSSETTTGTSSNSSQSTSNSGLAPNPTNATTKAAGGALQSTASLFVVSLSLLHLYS
The test can be described thus: FACS, NALM6. On the technique in general: A flow cytometer gives signals particle by particle.

Test [2] addresses CD24(27-56aa)-GST NEOX-4 (human). The test is described as follows: ELISA. (ELISA stands for enzyme-linked immunosorbent assay.)
The target of test [3] is T1, CD24 (cell surface). The test can be described thus: FACS, MDA-MB-468.
The target in test [4] is T2, CD24 biotinylated (ACRO CD4-H82E9) (human, UniProt P25063).
T2 chain: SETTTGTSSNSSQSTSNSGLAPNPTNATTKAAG
The test can be described thus: SPR. For orientation: In SPR one partner is held on a chip, and binding of the other changes the refractive index at the surface.

The target of test [5] is CD24(27-56aa)-GST NEOX-4 (human). The test can be described thus: ELISA. This is another data set of the same source.
Sequence of CD24(27-56aa)-GST NEOX-4 (human) (chain, as listed by the source): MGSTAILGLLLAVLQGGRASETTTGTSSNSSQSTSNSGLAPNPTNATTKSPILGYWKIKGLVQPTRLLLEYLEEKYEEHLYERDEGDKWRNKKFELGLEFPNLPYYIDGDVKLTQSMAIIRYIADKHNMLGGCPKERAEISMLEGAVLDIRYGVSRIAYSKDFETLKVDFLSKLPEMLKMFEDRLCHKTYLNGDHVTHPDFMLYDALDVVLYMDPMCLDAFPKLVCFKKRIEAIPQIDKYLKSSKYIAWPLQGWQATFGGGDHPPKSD
Test [6] shares this target. The test is described as follows: ELISA. This is another data set of the same source.

“And” between values parts separate entries of the source, which are not always exact repeats. Identical values can stand only once. Like-named read-outs stand apart in the source and are kept apart here.

B1: P6373 (antibody, V domains shown)
VH: EVKFEESGGGLVQPGGSIKLSCAASGVTFSEAWMDWVRQSPEKGLEWVAEIRDKPNSYVTYYAESVKGRFTISRDDSKSRVYLQMNNLRTEDTGIYYCTGAMDYWGQGTSVTVSS
VL: DIVMTQTPLSLSVTIGQPASISCKSSQSLLYSNGKTYLNWLQQRPGQSPKRLIYQVSKLDPGIPDRFSGSGSETDFTLKISRVEAEDLGIYYCMQGSSLPWTFGGGTKLEIKR
B1: in test [1], the EC50 was 0.469 µg/mL and 0.217 µg/mL.

B2: huG14-217 (antibody, V domains shown)
VH: EVQLVESGGGLVKPGGSLRLSCAASGLTFSNYWGNWVRQAPGKGLEWVALIRLYSDNYAIHYAESVKGRFTISRDDSKSTVYLQMNSLKTEDTAVYYCTTGTDYWGQGTTVTVSS
VL: DVVMTQSPLSLPVTPGRPASISCKSSHSLLYSNGRTYLNWLLQKPGQSPQRLIYLVSKLDSGVPDRFSGSGSGTDFTLKISRVEAEDLGVYYCIQGTYFPYTFGQGTKLEIK
B2: the figures for the EC50 in test [2], in test [1] and in test [3] were 4.43 ng/mL, 0.348 µg/mL and 1.21 µg/mL, respectively.

B3: huG14-230 (antibody, V domains shown)
VH: EVQLVESGGGLVKPGGSLRLSCAASGLTFSNYWGNWVRQAPGKGLEWVALIRLYSDNYAIHYAESVKGRFTISRDDSKSTVYLQMNSLKTEDTAVYYCTTGTDNWGQGTTVTVSS
VL: DVVMTQSPLSLPVTPGRPASISCKSSHSLLYSNGKTYLNWLLQKPGQSPQRLIYLVSKLDSGVPDRFSGSGSGTDFTLKISRVEAEDLGVYYCIQGTYFPYTFGQGTKLEIK
For B3, the results for the EC50 in test [2], in test [1] and in test [3] were 8.89 ng/mL, 0.35 µg/mL and 0.63 µg/mL, respectively.

B4: huG14-232 (antibody, V domains shown)
VH: EVQLVESGGGLVKPGGSLRLSCAASGLTFSNYWGNWVRQAPGKGLEWVALIRLYSDNYAIHYAESVKGRFTISRDDSKSTVYLQMNSLKTEDTAVYYCTTGTDNWGQGTTVTVSS
VL: DVVMTQSPLSLYVTPGRPASISCKSSHSLLYSNGRTYLNWLLQKPGQSPQRLIYLVSKLDSGVPDRFSGSGSGTDFTLKISRVEAEDLGVYYCIQGTYFPYTFGQGTKLEIK
Turning to B4, the EC50 in test [2] turned out to be 6.21 ng/mL; in test [1], 0.235 µg/mL; in test [3] it was 0.484 µg/mL.

B5: huG14-124-3 (antibody, V domains shown)
VH: EVQLVESGGGLVKPGGSLRLSCAASGLTFSNYWGNWVRQAPGKGLEWVALIRLYSDNYAIHYAESVKGRFTISRDDSKSTVYLQMNSLKTEDTAVYYCTTGTDYWGQGTTVTVSS
VL: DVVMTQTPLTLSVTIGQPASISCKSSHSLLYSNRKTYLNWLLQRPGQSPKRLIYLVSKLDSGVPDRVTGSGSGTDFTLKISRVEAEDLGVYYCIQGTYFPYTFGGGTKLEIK
The molecule B5 yielded a Kd in test [4] of 1.52 nM.

B6: huG14-102 (antibody, V domains shown)
VH: EVQLVESGGGLVKPGGSLRLSCAASGLTFSNYWMNWVRQAPGKGLEWVALIRLYSDNYAIHYAESVKGRFTISRDDSKSTVYLQMNSLKTEDTAVYYCTTGTDYWGQGTTVTVSS
VL: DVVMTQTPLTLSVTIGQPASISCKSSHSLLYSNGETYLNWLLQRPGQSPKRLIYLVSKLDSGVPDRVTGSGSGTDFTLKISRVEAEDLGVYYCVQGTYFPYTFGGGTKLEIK
Consider B6, for which the midpoint of the response in test [5], the EC50, lay at 0.00961 µg/mL.

B7: huG14-108 (antibody, V domains shown)
VH: EVQLVESGGGLVKPGGSLRLSCAASGLTFSNYWMNWVRQAPGKGLEWVALIRLYSDNYAIHYAESVKGRFTISRDDSKSTVYLQMNSLKTEDTAVYYCTTGTDYWGQGTTVTVSS
VL: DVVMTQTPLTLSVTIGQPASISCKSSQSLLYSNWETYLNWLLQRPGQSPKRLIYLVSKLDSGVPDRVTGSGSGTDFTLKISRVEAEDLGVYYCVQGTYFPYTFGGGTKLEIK
B7 had an EC50 in test [5] of 0.0784 µg/mL.

B8: huG14-101 (antibody, V domains shown)
VH: EVQLVESGGGLVKPGGSLRLSCAASGLTFSNYWMNWVRQAPGKGLEWVALIRLYSDNYAIHYAESVKGRFTISRDDSKSTVYLQMNSLKTEDTAVYYCTTGTDYWGQGTTVTVSS
VL: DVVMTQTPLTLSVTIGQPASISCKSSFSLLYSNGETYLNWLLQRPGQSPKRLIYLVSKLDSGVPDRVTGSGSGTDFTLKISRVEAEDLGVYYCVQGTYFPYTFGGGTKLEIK
Molecule B8 showed an EC50 in test [5] of 0.0325 µg/mL.

B9: huG14-109 (antibody, V domains shown)
VH: EVQLVESGGGLVKPGGSLRLSCAASGLTFSNYWGNWVRQAPGKGLEWVALIRLYSDNYAIHYAESVKGRFTISRDDSKSTVYLQMNSLKTEDTAVYYCTTGTDYWGQGTTVTVSS
VL: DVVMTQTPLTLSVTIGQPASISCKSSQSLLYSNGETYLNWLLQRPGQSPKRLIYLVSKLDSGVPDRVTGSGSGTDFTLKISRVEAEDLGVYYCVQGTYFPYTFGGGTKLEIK
Molecule B9 registered an EC50 in test [5] of 0.0109 µg/mL.

B10: huG14-105 (antibody, V domains shown)
VH: EVQLVESGGGLVKPGGSLRLSCAASGLTFSNYWMNWVRQAPGKGLEWVALIRLYSDNYAIHYAESVKGRFTISRDDSKSTVYLQMNSLKTEDTAVYYCTTGTDYWGQGTTVTVSS
VL: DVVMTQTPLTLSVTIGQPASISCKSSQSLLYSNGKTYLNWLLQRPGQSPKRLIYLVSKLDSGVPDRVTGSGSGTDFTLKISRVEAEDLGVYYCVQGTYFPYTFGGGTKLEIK
For B10, the EC50 in test [5] was 0.0206 µg/mL.

B11: huG14-124-2 (antibody, V domains shown)
VH: EVQLVESGGGLVKPGGSLRLSCAASGLTFSNYWGNWVRQAPGKGLEWVALIRLYSDNYAIHYAESVKGRFTISRDDSKSTVYLQMNSLKTEDTAVYYCTTGTDYWGQGTTVTVSS
VL: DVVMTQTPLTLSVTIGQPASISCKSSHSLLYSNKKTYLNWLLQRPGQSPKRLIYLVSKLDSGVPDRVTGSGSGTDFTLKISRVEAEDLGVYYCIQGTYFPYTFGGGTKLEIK
In test [4], B11 registered a Kd of 1.58 nM.

B12: huG14-111 (antibody, V domains shown)
VH: EVQLVESGGGLVKPGGSLRLSCAASGLTFSNYWMNWVRQAPGKGLEWVALIRLYSDNYAIHYAESVKGRFTISRDDSKSTVYLQMNSLKTEDTAVYYCTTGTDFWGQGTTVTVSS
VL: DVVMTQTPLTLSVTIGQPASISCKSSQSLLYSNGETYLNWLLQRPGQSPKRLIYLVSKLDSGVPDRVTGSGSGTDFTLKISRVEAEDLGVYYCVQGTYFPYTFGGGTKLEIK
B12: in test [5], the EC50 worked out at 0.0293 µg/mL.

B13: huG14-216 (antibody, V domains shown)
VH: EVQLVESGGGLVKPGGSLRLSCAASGLTFSNYWGNWVRQAPGKGLEWVALIRLYSDNYAIHYAESVKGRFTISRDDSKSTVYLQMNSLKTEDTAVYYCTTGTDYWGQGTTVTVSS
VL: DVVMTQSPLSLPVTPGRPASISCKSSHSLLYSNGKTYLNWLLQKPGQSPQRLIYLVSKLDSGVPDRFSGSGSGTDFTLKISRVEAEDLGVYYCIQGTYFPYTFGQGTKLEIK
As to B13, the EC50 in test [2] was 4.4 ng/mL; in test [1] it was 0.431 µg/mL; in test [3] it was 0.676 µg/mL.

B14: huG14-106 (antibody, V domains shown)
VH: EVQLVESGGGLVKPGGSLRLSCAASGLTFSNYWMNWVRQAPGKGLEWVALIRLYSDNYAIHYAESVKGRFTISRDDSKSTVYLQMNSLKTEDTAVYYCTTGTDYWGQGTTVTVSS
VL: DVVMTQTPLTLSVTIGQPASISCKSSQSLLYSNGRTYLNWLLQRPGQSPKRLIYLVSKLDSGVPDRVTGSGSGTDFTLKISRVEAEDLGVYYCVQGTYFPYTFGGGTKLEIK
In test [5], B14 returned an EC50 of 0.0157 µg/mL.

B15: huG14-103 (antibody, V domains shown)
VH: EVQLVESGGGLVKPGGSLRLSCAASGLTFSNYWMNWVRQAPGKGLEWVALIRLYSDNYAIHYAESVKGRFTISRDDSKSTVYLQMNSLKTEDTAVYYCTTGTDYWGQGTTVTVSS
VL: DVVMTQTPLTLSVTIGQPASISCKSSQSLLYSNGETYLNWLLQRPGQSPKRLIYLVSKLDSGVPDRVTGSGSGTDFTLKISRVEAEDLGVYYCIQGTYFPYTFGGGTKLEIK
In test [5], B15 displayed an EC50 of 0.00813 µg/mL.

B16: huG14-125 (antibody, V domains shown)
VH: EVQLVESGGGLVKPGGSLRLSCAASGLTFSNYWGNWVRQAPGKGLEWVALIRLYSDNYAIHYAESVKGRFTISRDDSKSTVYLQMNSLKTEDTAVYYCTTGTDYWGQGTTVTVSS
VL: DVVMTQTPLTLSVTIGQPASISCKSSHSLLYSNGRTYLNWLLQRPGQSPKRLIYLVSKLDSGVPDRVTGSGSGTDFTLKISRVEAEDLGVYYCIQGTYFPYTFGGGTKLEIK
For the molecule B16, the EC50 in test [1] was determined as 0.443 µg/mL; in test [3], 0.684 µg/mL; in test [6], 6.19 ng/mL.

B17: huG14-107 (antibody, V domains shown)
VH: EVQLVESGGGLVKPGGSLRLSCAASGLTFSNYWMNWVRQAPGKGLEWVALIRLYSDNYAIHYAESVKGRFTISRDDSKSTVYLQMNSLKTEDTAVYYCTTGTDYWGQGTTVTVSS
VL: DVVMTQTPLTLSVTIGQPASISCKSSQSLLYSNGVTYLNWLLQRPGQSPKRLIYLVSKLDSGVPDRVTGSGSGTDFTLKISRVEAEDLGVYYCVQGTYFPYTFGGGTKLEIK
For the molecule B17, the midpoint of the response in test [5], the EC50, lay at 0.0494 µg/mL.

B18: huG14-124-1 (antibody, V domains shown)
VH: EVQLVESGGGLVKPGGSLRLSCAASGLTFSNYWGNWVRQAPGKGLEWVALIRLYSDNYAIHYAESVKGRFTISRDDSKSTVYLQMNSLKTEDTAVYYCTTGTDYWGQGTTVTVSS
VL: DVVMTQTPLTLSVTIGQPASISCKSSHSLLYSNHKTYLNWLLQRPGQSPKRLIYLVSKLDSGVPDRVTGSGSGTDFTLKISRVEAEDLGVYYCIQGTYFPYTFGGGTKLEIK
For B18, in test [4], the dissociation constant Kd came out at 2.08 nM.

B19: huG14-124-6 (antibody, V domains shown)
VH: EVQLVESGGGLVKPGGSLRLSCAASGLTFSNYWGNWVRQAPGKGLEWVALIRLYSDNYAIHYAESVKGRFTISRDDSKSTVYLQMNSLKTEDTAVYYCTTGTDYWGQGTTVTVSS
VL: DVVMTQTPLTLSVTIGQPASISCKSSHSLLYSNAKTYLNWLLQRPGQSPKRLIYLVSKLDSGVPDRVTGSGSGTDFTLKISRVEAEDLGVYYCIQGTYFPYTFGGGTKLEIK
In test [4], B19 gave a Kd of 2.54 nM. The Kd values of the last two molecules are within 1.5-fold of each other.

B20: huG14-124-5 (antibody, V domains shown)
VH: EVQLVESGGGLVKPGGSLRLSCAASGLTFSNYWGNWVRQAPGKGLEWVALIRLYSDNYAIHYAESVKGRFTISRDDSKSTVYLQMNSLKTEDTAVYYCTTGTDYWGQGTTVTVSS
VL: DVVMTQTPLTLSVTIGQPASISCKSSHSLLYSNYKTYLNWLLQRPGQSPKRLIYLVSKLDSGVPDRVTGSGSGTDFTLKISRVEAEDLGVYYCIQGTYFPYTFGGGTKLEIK
For the molecule B20, in test [4], the Kd was 2.13 nM.

B21: huG14-124-7 (antibody, V domains shown)
VH: EVQLVESGGGLVKPGGSLRLSCAASGLTFSNYWGNWVRQAPGKGLEWVALIRLYSDNYAIHYAESVKGRFTISRDDSKSTVYLQMNSLKTEDTAVYYCTTGTDYWGQGTTVTVSS
VL: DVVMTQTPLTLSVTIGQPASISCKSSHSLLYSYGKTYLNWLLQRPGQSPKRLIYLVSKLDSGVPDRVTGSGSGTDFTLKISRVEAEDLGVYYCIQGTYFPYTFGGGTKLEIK
Turning to B21, the affinity in test [4], expressed as Kd, was 1.07 nM. This Kd lies about 2-fold lower than the previous one.

B22: huG14-131 (antibody, V domains shown)
VH: EVQLVESGGGLVKPGGSLRLSCAASGLTFSNYWMNWVRQAPGKGLEWVALIRLYSDNYAIHYAESVKGRFTISRDDSKSTVYLQMNSLKTEDTAVYYCTTGTDNWGQGTTVTVSS
VL: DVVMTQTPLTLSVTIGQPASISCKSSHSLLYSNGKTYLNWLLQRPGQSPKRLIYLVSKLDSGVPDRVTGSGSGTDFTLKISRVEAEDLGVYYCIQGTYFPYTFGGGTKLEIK
In the case of B22, the EC50 was determined as 0.391 µg/mL in test [1] and 0.57 µg/mL in test [3].

B23: huG14-124-9 (antibody, V domains shown)
VH: EVQLVESGGGLVKPGGSLRLSCAASGLTFSNYWGNWVRQAPGKGLEWVALIRLYSDNYAIHYAESVKGRFTISRDDSKSTVYLQMNSLKTEDTAVYYCTTGTDYWGQGTTVTVSS
VL: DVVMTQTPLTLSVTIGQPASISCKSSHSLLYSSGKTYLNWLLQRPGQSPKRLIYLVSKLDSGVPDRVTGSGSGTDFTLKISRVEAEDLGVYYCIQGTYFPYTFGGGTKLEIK
Consider B23, for which the Kd in test [4] was 9.77 nM.

B24: huG14-104 (antibody, V domains shown)
VH: EVQLVESGGGLVKPGGSLRLSCAASGLTFSNYWMNWVRQAPGKGLEWVALIRLYSDNYAIHYAESVKGRFTISRDDSKSTVYLQMNSLKTEDTAVYYCTTGTDYWGQGTTVTVSS
VL: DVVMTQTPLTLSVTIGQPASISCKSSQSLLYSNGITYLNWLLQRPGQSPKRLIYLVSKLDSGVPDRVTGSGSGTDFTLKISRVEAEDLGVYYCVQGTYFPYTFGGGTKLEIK
Molecule B24 gave an EC50 in test [5] of 0.0183 µg/mL.

B25: huG14-110 (antibody, V domains shown)
VH: EVQLVESGGGLVKPGGSLRLSCAASGLTFSNYWMNWVRQAPGKGLEWVALIRLYSDNYAIHYAESVKGRFTISRDDSKSTVYLQMNSLKTEDTAVYYCTTGTDNWGQGTTVTVSS
VL: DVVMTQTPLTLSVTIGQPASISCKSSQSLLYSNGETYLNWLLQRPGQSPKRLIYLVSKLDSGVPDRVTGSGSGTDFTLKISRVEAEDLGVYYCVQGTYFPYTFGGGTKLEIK
For the molecule B25, a half-maximal response in test [5] (EC50) required 0.0153 µg/mL.

B26: huG14-130 (antibody, V domains shown)
VH: EVQLVESGGGLVKPGGSLRLSCAASGLTFSNYWMNWVRQAPGKGLEWVALIRLYSDNYAIHYAESVKGRFTISRDDSKSTVYLQMNSLKTEDTAVYYCTTGTDNWGQGTTVTVSS
VL: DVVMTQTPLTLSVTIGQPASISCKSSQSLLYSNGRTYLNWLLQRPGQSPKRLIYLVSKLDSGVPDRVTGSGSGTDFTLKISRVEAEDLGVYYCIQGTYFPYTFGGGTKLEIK
B26 came in with an EC50 in test [6] of 3.89 ng/mL.

B27: huG14-1 (antibody, V domains shown)
VH: EVQLVESGGGLVKPGGSLRLSCAASGLTFSNYWMNWVRQAPGKGLEWVALIRLYSDNYAIHYAESVKGRFTISRDDSKSTVYLQMNSLKTEDTAVYYCTTGTDYWGQGTTVTVSS
VL: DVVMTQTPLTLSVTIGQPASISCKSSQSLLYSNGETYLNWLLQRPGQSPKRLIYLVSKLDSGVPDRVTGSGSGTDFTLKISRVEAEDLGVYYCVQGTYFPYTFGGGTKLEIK
Consider B27, for which the EC50 in test [2] is 177 ng/mL; in test [5], 0.136 µg/mL and 0.128 µg/mL; in test [6], 154 ng/mL.

These data come from patent publication US20260347496 (published 2026).
